For this assay, the system named is HIV-1 LTR. Briefly: HIV-1 reporter transcription, transient co-transfection. Type of assay: cell-based, human. On the procedure: Cell culture, transfection, and reporter gene assays. The E1A-transformed, human kidney cell line, 293, and NIH-3T3 cells were maintained in Dulbecco's Modified Eagle Medium (DMEM) supplemented with 10% fetal calf serum and penicillin-streptomycin at 37° C. in 5% carbon dioxide in tissue culture grade Petri dishes. PRMT-2−/− mouse embryo fibroblasts (MEFs) and wild type MEFs were prepared from day 13.5 embryos and maintained in DMEM supplemented with 10% fetal calf serum. MEFs at passage 4 were used in this experiment. Lipofectamine Plus™ reagent (Boehringer Mannheim) was used to transfect both 293 and NIH-3T3 cells according to directions from the manufacturer. […] TNF-α stimulation of cells was done using recombinant TNF-α (200 U/ml) for 12 hours. Transfected cells were harvested at 36 hours, and CAT activity was assayed on 10 to 100 μg of protein from whole cell extracts. CAT assays were performed essentially as described in Leung, K. & Nabel, G. J. Nature 333, 776-778 (1988). To analyze the κB-reporter activity in MEFs, cells were transfected with the reporter (2×kB-Luc) and PRL-TK vector (Promega) using FuGENE6 transfection reagent (Roche). Luciferase activity was analyzed by Dual-Luciferase Reporter Assay System (Promega).
To determine whether PRMT-1, 2 or 3 could affect NF-κB function, their potential to regulate effects on transcription of the human immunodeficiency virus type 1 (HIV-1) was examined. Transient co-transfections were performed using PRMT1, PRMT2 and PRMT3 expression plasmids with an HIV-1 reporter plasmid in the human renal epithelial cell line, 293T.
To determine its dependence on NF-κB, human immunodeficiency virus type 1 (HIV-1) reporter plasmids with wild-type (WT) or mutant (ΔκB) sites were co-transfected transiently with control or PRMT2 expression plasmids in the different cell lines. […] The KB effect was dose-dependent and was also observed with other inducers of NF-κB, including phorbol […] (PMA) (FIG. 2B, right panel).

B1: PRMT2: human PRMT-2 polypeptide, SEQ ID NO:2, expressed from pVR1012 vector with HA-tag (protein, listed as Homo sapiens)
chain: MATSGDCPRSESQGEEPAECSEAGLLQEGVQPEEFVAIADYAATDETQLSFLRGEKILILRQTTADWWWGERAGCCGYIPANHVGKHVDEYDPEDTWQDEEYFGSYGTLKLHLEMLADQPRTTKYHSVILQNKESLTDKVILDVGCGTGIISLFCAHYARPRAVYAVEASEMAQHTGQLVLQNGFADIITVYQQKVEDVVLPEKVDVLVSEWMGTCLLFEFMIESILYARDAWLKEDGVIWPTMAALHLVPCSADKDYRSKVLFWDNAYEFNLSALKSLAVKEFFSKPKYNHILKPEDCLSEPCTILQLDMRTVQISDLETLRGELRFDIRKAGTLHGFTAWFSVHFQSLQEGQPPQVLSTGPFHPTTHWKQTLFMMDDPVPVHTGDVVTGSVVLQRNPVWRRHMSVALSWAVTSRQDPTSQKVGEKVFPIWR
modifications: HA tag
In the case of B1, the “inhibition of HIV-1 transcription” value (293T cells, expression plasmid co-transfected with HIV-1 reporter plasmid) is listed as “about 50 fold”. Also, where the note is “293 cells, basal and TNF-α-dependent”, the “HIV-1 transcription from wild-type reporter” value was “significantly inhibited both basal and TNF-α-dependent HIV-1 transcription”.

(Values after patent US20060239990A1, “Protein Arginine N-Methyltransferase 2 (PRMT-2)” (priority 2003, published 2006).)
